In IntAct's records for PubMed 15023544:

B1: 14-3-3 protein zeta/delta (Homo sapiens), P63104 (parent)
chain: MDKNELVQKAKLAEQAERYDDMAACMKSVTEQGAELSNEERNLLSVAYKNVVGARRSSWRVVSSIEQKTEGAEKKQQMAREYREKIETELRDICNDVLSLLEKFLIPNASQAESKVFYLKMKGDYYRYLAEVAAGDDKKGIVDQSQQAYQEAFEISKKEMQPTHPIRLGLALNFSVFYYEILNSPEKACSLAKTAFDEAIAELDTLSEESYKDSTLIMQLLRDNLTLWTSDTQGDEAEAGEGGEN

Variants of: B1
Settings: with m3k5_human MAP3K5, Q99683
Sequence of m3k5_human MAP3K5, Q99683 (Q99683 whole entry): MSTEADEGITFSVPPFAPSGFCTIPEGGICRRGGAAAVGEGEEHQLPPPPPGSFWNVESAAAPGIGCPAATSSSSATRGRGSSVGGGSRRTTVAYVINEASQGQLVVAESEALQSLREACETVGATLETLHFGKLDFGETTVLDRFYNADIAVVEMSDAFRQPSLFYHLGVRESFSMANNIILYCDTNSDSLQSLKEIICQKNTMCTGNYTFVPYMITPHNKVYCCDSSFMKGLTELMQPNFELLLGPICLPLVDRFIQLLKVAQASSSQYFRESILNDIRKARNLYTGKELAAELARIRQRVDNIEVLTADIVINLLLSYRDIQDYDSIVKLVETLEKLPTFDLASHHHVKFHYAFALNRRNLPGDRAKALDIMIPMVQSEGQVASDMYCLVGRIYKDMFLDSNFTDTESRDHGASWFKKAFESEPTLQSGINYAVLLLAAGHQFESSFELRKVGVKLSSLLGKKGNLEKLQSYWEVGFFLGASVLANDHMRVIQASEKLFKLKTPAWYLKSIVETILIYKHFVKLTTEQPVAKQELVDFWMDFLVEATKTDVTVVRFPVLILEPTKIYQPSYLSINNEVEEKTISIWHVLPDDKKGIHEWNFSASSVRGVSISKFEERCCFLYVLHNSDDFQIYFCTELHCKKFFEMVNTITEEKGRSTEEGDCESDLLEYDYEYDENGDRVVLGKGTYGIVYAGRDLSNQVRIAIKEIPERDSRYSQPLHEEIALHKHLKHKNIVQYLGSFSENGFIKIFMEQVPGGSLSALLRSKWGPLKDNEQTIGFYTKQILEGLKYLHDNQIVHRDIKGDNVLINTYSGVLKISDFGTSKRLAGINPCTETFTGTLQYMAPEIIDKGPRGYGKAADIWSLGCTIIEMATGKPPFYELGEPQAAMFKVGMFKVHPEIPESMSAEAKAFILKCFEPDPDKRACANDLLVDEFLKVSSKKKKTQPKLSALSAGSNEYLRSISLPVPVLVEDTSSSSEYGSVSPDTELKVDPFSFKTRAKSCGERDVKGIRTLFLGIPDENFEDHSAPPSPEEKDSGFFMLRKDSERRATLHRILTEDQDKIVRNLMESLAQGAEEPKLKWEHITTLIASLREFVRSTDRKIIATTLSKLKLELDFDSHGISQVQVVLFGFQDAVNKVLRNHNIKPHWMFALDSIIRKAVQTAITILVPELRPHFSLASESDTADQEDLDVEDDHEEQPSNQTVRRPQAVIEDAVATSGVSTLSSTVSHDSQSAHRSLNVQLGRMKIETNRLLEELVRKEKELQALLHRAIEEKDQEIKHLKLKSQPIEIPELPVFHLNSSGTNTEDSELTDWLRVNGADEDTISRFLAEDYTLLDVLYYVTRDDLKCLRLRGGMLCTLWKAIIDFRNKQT
With MDKNELVQKAKLAEQAERYDDMAACMKSVTEQGAELSNEERNLLSVAYENVVGARESSWEVVSSIEQKTEGAEKKQQMAREYREKIETELRDICNDVLSLLEKFLIPNASQAESKVFYLKMKGDYYRYLAEVAAGDDKKGIVDQSQQAYQEAFEISKKEMQPTHPIRLGLALNFSDFYYEILNSPEKACSLAKTAFDEAIAELDTLSEESYKDSTLIMQELRDNLTLWTSDTQGDEAEAGEGGEN [K49E;R56E;R60E;V176D;L220E] the “effect of a mutation on the interaction” value was “decreasing interaction”.
